Test results reported in the DeepSol protein solubility set.

Assay: soluble on expression in E. coli; label from the status in PepcDB or PDB records

## MSLTIIKQVELHEFDFKAKNLGNLTGAESVGAFGYLKGSFSKIKKFAVVIITDDGVRGEYVTHWCASDATYAQSSILAPKLLGRNAEEREGIYDDFKRELRQFDHMGHGPIDIALWDWAGKKLDCSVNFLLGGFKKKLPAYASTYHGDRNGGLDSKEAFSDFAEYCYDLGYKAFKIHGWNDGNAKEEAENVLHVAKKVGHKMTLMLDPACELRTFADALYVGKACDEADYFWLEDPYRDSGVSAFAHKKLRNMIKTPILQTEHIRGLEPKADFLIAGGTDFLRMDPEYDMGITGGMKIAHLAESFGVDVEIHACGPAHRHMMSAIRNTNFYEVALLGPDCPNAIPPVYLCGYSDMIDCIDKNGFVEVPNGVGLGVKYDWEFISKNTTNKKIFSLEGHHHHHH
  soluble on expression in E. coli: soluble

## MINFHPNVKRAISQAAQKYGLPESFLERVAMIESKGNPNARNSKSSAGGLYQFLDSTAKQYQLNNKFDPFQATDAMARLTKDNTRYLATALGREPSQAELYLAHQQGPAGAVKLIKNPNVPASQLLGRQAVVLNGGNVEATAGDFMNHIYGLYNKTGEASNGRARQSWGNGQSAANEVVPLRGVERFQKAIQGAQARKPLMAYDTPLHENTRFQGQGIDAGALKKSVMSLVDLMRRNKDAQNQQIEMAHQQMMQQPMMTGFSQSSAHPVDLTLLIDPSRRNPVRSYGQQKKQQLQEELLRRTGAYHV
  soluble on expression in E. coli: not soluble

## MGSDKIHHHHHHIWCTPTRLARPDRRGKAIRTIGMADGTIPMNAKPTEEISVREVFGIDTPMLVKGFAERSDRVPEIDQTYKFDPDTTLAILAGFSHNRRVMVQGYHGTGKSTHIEQVAARLNWPCVRVNLDSHISRIDLIGKDAIKLRDGKQVTEFHEGILPWALRNPVAIVFDEYDAGRADVMFVIQRVLEHDGKLTLLDQNEIITPNPCFRLFATANTVGLGDTTGLYHGTQQINQAQMDRWSLVATLNYLSHDAETMIVLSKAPHYNTEKGRKQVSQMVTVADLTRTAFMNGDLSTVMSPRTVINWAQNAEIFRDVGYAFRLTFLNKCDELERQTVAEFYQRCFDEELPESAASTSLG
  soluble on expression in E. coli: not soluble

## MTKYRLSEEPRAFTYQVDGEKKSVLLRQVIAVTDFNDVKAGTSGGWVDAGNVLSQQGDCWIYDENAMAFAGTEITGNARITQPCSLYNNVRIGDNVWIDRSDISDGARISDNVTIQSSSVRGECAIYGDARVLNQSEILAVQGLTHEHAQILQIYDRATVNHSRIVHQVQLYGDATITLAFIEHRAEVFDFALIEGNKDNNVWICDCAKVYGHARVIAGTEEDAIPTLRYSSQVAEHALIEGNCVLKHHVLVGGHAEIRGGPILLDDRVLIEGQACIQGEILIEHQVEISGRATVIAFDGNTIHLRGPKVINGEDRITRTPLVGSLLEHHHHHH
  soluble on expression in E. coli: soluble

## AAQEKVVKLKIVQTSDVHGNYYPYNFITRKDWQGSLARIYAFVEKEREQYKENLILLDNGDILQGQPTAYYYNYIDTVSPHLCAEMMNYMKYDAGNMGNHDVETGRAVFDRWINTCDFPVLGANIIDISTGEPHLPPYKVMERDGVKIVILGMITPAIPAWLSENLWKGLRFDDMEETARKWMKIIREKENPDLMIGLFHAGQEAFKMSGKYNENASLSVAKNVPGFDIVLMGHDHARECKKVMNVAGDSVLVIDPASNGIVLSNIDVTLKLKDGKVRSKDIKGVLTETKDYGISEDFMKNFAPQYDTVRNFVSK
  soluble on expression in E. coli: not soluble

## MGSDKIHHHHHHMRLKVSFQAMESTVPLNYNYFLSSFIYKRLASQNENFARFLHEKGYGKRFKFFTFSQLFFENSRVSGERIFIFPGKGWWYISSPVVEFVRYMFSSLSEDPVIRVGKTEFIVKSIDIENSLPDQSEYHFVMLSPLVVSVPEENNGKLYHRYLHPGEEEFYEVFRKNLMKKYRAFYGKDPEGTVEVIPDWDYIKSRHRITKRIKLKNAFVRAVVFPFKIRGEKKLVEIGYEAGFGEKNSMGFGMVALKKYER
  soluble on expression in E. coli: not soluble

## MPVKPASPRSHPGCPELTHERYCDAQAKAEDARYRKYQRDPKINRRYGSRWRKIRAAYVAAHPLCEDCLEAGRYTPVQEVHHVLPIEHGGTHNFDNLQSLCKPCHSRQSALDDDRWRQQPRVYTYLEHHHHHH
  soluble on expression in E. coli: soluble

## MNHQSYSAPTQAVAANTHLIYSTEQGGAVSPTPQKSIGSIADYDPMNGQWGTAAAQPRNSEKLGYLKAQVDKGPARFCADFAGAPPPSSNSISSTSPHSTLSSPQSTISPTGKAGFAVKAIYDYAAADKDEISFLEGDIIVNCEKIDDGWMTGTVQRTLQWGMLPANYVQPHKLPTGLHRLS
  soluble on expression in E. coli: not soluble

## SSLCEDMLLCNYRKCRIKLSGYAWVTACSHIFCDQHGSGEFSRSPAICPACNSTLSGKLDIVRTELSPSEEYKAMVLAGLRPEIVLDISSRALAFWTYQVHQERLYQEYNFSKAEGHLKQMEKIYTQQIQSKDVELTSMKGEVTSMKKVLEEYKKKFSDISEKLMERNRQYQKLQGLYDSLRLRNITIANHEGTLEPSMIAQSGVLGFPLGNNSKFPLDNTPVRNRGDGDGDFQFRPFFAGSPTAPEPSNSFFSFVSPSRELEQQQVSSRAFKVKRI
  soluble on expression in E. coli: not soluble

## STDVHRRFLQLLMTHGVLEEWDVKRLQTHCYKVHDRSATVDKLEDFINNINSVLESLYIEIKRGVTEDDGRPIYALVNLATTSISKMATDFAENELDLFRKALELIIDSETGFASSTNILNLVDQLKGKKMRKKEAEQVLQKFVQNKWLIEKEGEFTLHGRAILEMEQYIRETYPDAVKICNICHSLLIQGQSCETCGIRMHLPCVAKYFQSNAEPRCPHCNDYWPHEIPKVFDPEKERESGVLKSNKKSLRSRQH
  soluble on expression in E. coli: soluble

## MGSDKIHHHHHHMRVGATLARAIALKYNKKLVPVNHGIGHIEIGYLTTEARDPLILYLSGGNTIITTFYKGRFRVFGETLDIALGNMMDVFVREVSLAPPYIINGIHVIDICAEKGNKLLKLPYVVKGQDMSFSGLLTAALRVVGKEKLEDICYSVREIAFDMLLEATERALALTSKKELMIVGGVAASVSLRKKLEELGKEWNVQIKIVPPEFAGDNGAMIAYAGMLAASKGVFIDVDKSYIRPRWRVDEVDIPWRN
  soluble on expression in E. coli: not soluble

## MSPVAAMKRKNGVALWRQIADRIRGEIAAGDHDETGMLPPEMTLAEKFGVNRHTVRSAIAALASEGILEPMQGRGTMIARKERLSFPISLRTRFTAGIGDQVKEMEALLLSHTTEPASADLAARLQLPSGAPLVRLETLRKADTRPVSRSTTWFPADRFAGIGEAYRKSGSITAAFKALGVADYVRISTVISAIHADTQDLADLELSPGAILLVTQALNADMDGVPVQYAVSRFSADTVEFTVEN
  soluble on expression in E. coli: not soluble

## MKKQKLSGAEGFESYYLSIFGERWQSLKAALLEERKPEAYSENLIQNYYLDYASIQAARAMPVLEEGSCLDMCAAPGGKTLVLLSRIKENAEIQANELSADRRNRLIRVLDEHLSEETRKRIRVSSYDASRMPRYGQELYDRILLDAPCSSERHVLQNEKYLKQWTEARIKNLSQRQWALLSAAFLLLKPKGFLVYSTCALADEENDFLIEKLIKKYKEKVRLEEKLDGLGPISPEKTRYGFRFLPDKAEGAGPIYFSLIQKN
  soluble on expression in E. coli: not soluble

## MKIGIVIPAHNEEQHLSACLQSIQQAIQHTGHEQVEILVVLDSCTDQSRSVVESHQVNWIECNFACVGKARDLGIRQLIDQGVIWVACTDADTIVDSDWILCQMLHQPTDAICGVVTLDDLSHLSVQQQQKYLAHYQDSMDHQHIHGANLSFSAEAYIQAGGFEPIPCHEDVSLIEKFIKQCCKVTRSNLEHHHHHH
  soluble on expression in E. coli: not soluble

## SSLENVVYNLVNAGHFDGRAGELPCAVIGEKVIAKIQNEDVVVFKNNTPFPTNVAVELFAKRSIRPHPELKLFRNLNIDVCWSHVLWDYAKDSVFCSSTYKVCKYTDLQCIESLNVLFDGRDNGALEAFKKCRNGVYINTTKIKSLSMIKGPQRADLNGVVVEKVGDSDVEFWFAVRKDGDDVIFSRTGSLEPSHYRSPQGNPGGNRVGDLSGNEALARGTIFTQSRLLSSFTPRSEMEKDFMDLDDDVFIAKYSLQDYAFEHVVYGSFNQKIIGGLHLLIGLARRQQKSNLVIQEFVTYDSSIHSYLITDENSGSSKSVCTVIDLLLDDFVDIVKSLNLKCVSKVVNVNVDFKDFQFMLWCNEEKVMTF
  soluble on expression in E. coli: soluble

## MAHHHHHHMYSFSLASNRKRAIPNASGLAPPAAAHVIRAPSELKPHQRLPQPLNEAADDAADDDVMQVSNARFGWHPAHAHAPTSSLYSVRPPAEQLVHVHNLNAYAGLRDAADWSVEVQREREQKKRRALAQHEAVKLEEQRHRDAHEEQTKKEMQQRRLERQQERAELREADAMADFQERNTQFLQNQLWLMQLGSYVKQTDAQHKAHVREELHKSSSSRNHLDVDHASTTCWTGTKARGHHASAPSTEIDLRQAAEATEEAYVRLSLAYRNEAQRSRAAAAILHPGELTGKGRSRLQAIRPAGAFASPTSPSAPSQAATAVSTPSHSPAASPAPAAVTEAAAKVSAPFHTAPPMFTHTSTENMGQHANAIPYTYIPEYFDAPSAAATTGKVPAPHRAGESPEQQETGAVMPLPLSPVPVSRDVTGALQARYYPWALYSAATVRKSMLPPLPPPREASLPVRRWGAAELRDSMFGHCILEDGTIQDQCERKKVCAAYLSYTTLPRDNATATSNAAVEPQEPLHFGKRMDIWL
  soluble on expression in E. coli: not soluble

## MFRGATAVNLDSKGRVAIPTRYRAEILEKNQGQMVCTVDIRQSCLLLYPLDEWEKIEQKLLALSNFDPTQRRLQRVMLGHATECEMDAQGRILLSGPLRQHAKLEKGLMLVGQLNKFEIWSDVEWHTQIAEDIEIGSSTDFAADALNDFSL
  soluble on expression in E. coli: not soluble

## MEMTMEQEPLNGWPQPYRLLDAQPYWDALQDEKLTYQQCVACRQSVWPAHSRCPHCSSDQLVWQASSGRATVYSFSTVTRGPTPVWASIVPYTVGFVEMDEGYFLFTQIEGPPGSIGVGDKVQVRFVRRGAQILPVFVSADLPA
  soluble on expression in E. coli: not soluble

## MGSDKIHHHHHHMRAHCRHSLWRKENMMESKIYPHEVSLETIDSMPDEYRDTLIHQLLANGEGELSAGDTYIDSFYPLAPDADERYICAQFAAEEVDHFRRFSRLLAELEVDTSHMLSQKKAERRYFAAESMTTDFRSWEERAAFSFLCELEGHYQIKEMVSSSYLPLRAEAEAVLKEEARHFSHGALLMRRAAKDGDARARAQDALDRLYPMAMDMFGRSDSHRSDAAVSWGLRQYTNGQLRDRYRDDVRGHIQRLGYEVPDETARRKYF
  soluble on expression in E. coli: not soluble

## MSLSTDDTLWREFLQVWPLERLREMTLAEYTTAGDKDCFVYWLEFRLVDYGSIAGGSAFKFAIFSRKETGAREGDTSLAYDDRYGWYRRFGTSPEEAFQTIRGHVVAVAEAARDGRLDEIDNSPLGAAYRWKIAFHYQPLRNPSTPCVYVRKPLLHFLGLSAADTTTPQSELYQALARLRQADESIFVFSERLWKDWVADTPFVVKLSEGAIKHGYLPVNLISAPFPETMYGGKTPNEAADVAHFRTDTGLEFDTDLRVSSPGSARLRHRLGGYFEDIGAAAGDLITLTQDGDGTYLLSSKLAVHAIGPTASAATITARASVKEAAAVRPPLNQILFGPPGTGKTYEAIEKALEILDPSFLLQLGDDESNERRRALKRRYDELAKEGLVQFVTFHQSFSYENFVEGLSASSDPDTKQVRYEVEDGVFKELCESARTRLVRRSDDAPLELSGRRIWKLSLGDSITEGHIFEECMEKGLALMGFGNNADFSQCQSREDIQKMFAASGEPLSLGAYPITAIKTFVCQMKLGDLIVVSEGNLKFRAIGEITGDYQLLPRDSDTYSQARPVRWLRGYKPALPYGALMENRFSQMTVYELRAGSIDHDKFRELLKSECIATGADRPHVLIIDEINRGNVSRIFGELITLIEPSKRSGAAEALEVLLPYSKDPFSVPDNVYLIGTMNTADRSLAGLDIALRRRFDFVEMAPRPDKLTGVKVAEIDISAVLETMNRRIEVLLDREHRLGHAYFMSLENSNDLSRLSNIFRQQIIPLLQEYFFEDWQRIAWILNDHRKDERFRFIVPAPYSVDSLFGDTGQVAQDSKAWRMNEEAFHKPQSYLGIVGDGKEGHHHHHH
  soluble on expression in E. coli: not soluble
